Data: US20220411483A1 (Chugai, published 2022)
Substitutions are numbered along the chain they refer to.

T1: human FcγRIIb extracellular domain with C-terminal His tag (human, UniProt P31994 43-217)
T1 construct: extracellular domain; also called FcgRIIb
T1 sequence (looked up): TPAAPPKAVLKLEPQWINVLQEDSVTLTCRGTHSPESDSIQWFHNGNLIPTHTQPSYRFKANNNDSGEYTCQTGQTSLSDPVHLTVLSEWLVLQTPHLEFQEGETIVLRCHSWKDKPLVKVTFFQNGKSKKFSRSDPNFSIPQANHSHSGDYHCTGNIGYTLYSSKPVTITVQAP

T2: FcgRIIaR (human, UniProt P12318 34-217)
T2 construct: extracellular domain; also called FcγRIIa R type; FcγRIIa (R type)
T2 sequence (looked up): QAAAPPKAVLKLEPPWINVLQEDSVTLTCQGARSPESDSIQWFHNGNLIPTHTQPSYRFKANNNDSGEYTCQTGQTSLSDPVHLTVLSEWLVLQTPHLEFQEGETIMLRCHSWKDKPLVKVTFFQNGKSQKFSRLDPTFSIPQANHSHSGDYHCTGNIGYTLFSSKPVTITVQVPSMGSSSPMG

T3: FcgRIIb (human, UniProt P31994 43-217)
T3 construct: extracellular domain; also called FcγRIIb
T3 sequence (looked up): T1 sequence (looked up)

T4: human FcγRIIa R type extracellular domain with C-terminal His tag (human, UniProt P12318 34-217)
T4 construct: extracellular domain; also called FcgRIIaR
T4 sequence (looked up): T2 sequence (looked up)

T5: human FcγRIIa H type extracellular domain with C-terminal His tag (human, UniProt P12318 34-217)
T5 construct: extracellular domain; also called FcgRIIaH
T5 sequence (looked up): T2 sequence (looked up) with R134H

B1: IL6R-P765/IL6R-L (antibody, human IgG1, kappa)
heavy: QVQLQESGPGLVKPSETLSLTCAVSGHSISHDHAWSWVRQPPGEGLEWIGFISYSGITNYNPSLQGRVTISRDNSKNTLYLQMNSLRAEDTAVYYCARSLARTTAMDYWGEGTLVTVSSASTKGPSVFPLAPSSKSTSGGTAALGCLVKDYFPEPVTVSWNSGALTSGVHTFPAVLQSSGLYSLSSVVTVPSSSLGTQTYICNVNHKPSNTKVDKKVEPKSCDKTHTCPPCPAPELLGGDSVFLFPPKPKDTLMISRTPEVTCVVIDVAHEDGEVKFNWYVDGVEVHNAKTKPREEQYNSTYRVVSVLTVLHQDWLNGKEYKCKVSNKALPAPIEKTISKAKGQPREPQVYTLPPSRDELTKNQVSLTCLVKGFYPSDIAVEWESNGQPENNYKTTPPVLDSDGSFFLYSKLTVDKSRWQQGNVFSCSVMHEALHNHYTQKSLSLSP
light: not shown
B2: IL6R-P774/IL6R-L (antibody, human IgG1, kappa)
heavy: B1 heavy with I266V, H270E, K324E
light: not shown
B3: IL6R-P781/IL6R-L (antibody, human IgG1, kappa)
heavy: B1 heavy with I266V, A269S, G273P, S300A, A329G, A332S, P333S
light: not shown
B4: IL6R-P786/IL6R-L (antibody, human IgG1, kappa)
heavy: B1 heavy with G239D, I266V, A269S, G273P, S300A, A329G, A332S, P333S
light: not shown
B5: IL6R-P775/IL6R-L (antibody, human IgG1, kappa)
heavy: B1 heavy with I266V, A269S, K324A
light: not shown
B6: IL6R-P777/IL6R-L (antibody, human IgG1, kappa)
heavy: B1 heavy with E235D, H270E, K324A
light: not shown
B7: IL6R-P787/IL6R-L (antibody, human IgG1, kappa)
heavy: B1 heavy with E235D, G239D, I266V, A269S, G273P, S300A, A329G, A332S, P333S
light: not shown
B8: IL6R-P771/IL6R-L (antibody, human IgG1, kappa)
heavy: B1 heavy with A269S, K324A
light: not shown
B9: IL6R-P776/IL6R-L (antibody, human IgG1, kappa)
heavy: B1 heavy with I266V, A269S, K324E
light: not shown
B10: IL6R-P783/IL6R-L (antibody, human IgG1, kappa)
heavy: B1 heavy with G239D, I266V, A269S, G273P, A329G, A332S, P333S
light: not shown
B11: IL6R-P769/IL6R-L (antibody, human IgG1, kappa)
heavy: B1 heavy with A269S
light: not shown
B12: IL6R-P766/IL6R-L (antibody, human IgG1, kappa)
heavy: B1 heavy with I266V, H270E, A329G, A332S, P333S
light: not shown
B13: IL6R-P767/IL6R-L (antibody, human IgG1, kappa)
heavy: B1 heavy with A269S, H270E, A329G, A332S, P333S
light: not shown
B14: IL6R-P779/IL6R-L (antibody, human IgG1, kappa)
heavy: B1 heavy with H270E, K324A
light: not shown
B15: IL6R-P782/IL6R-L (antibody, human IgG1, kappa)
heavy: B1 heavy with E235D, I266V, A269S, G273P, A329G, A332S, P333S
light: not shown
B16: IL6R-P780/IL6R-L (antibody, human IgG1, kappa)
heavy: B1 heavy with H270E, K324E
light: not shown
B17: IL6R-P785/IL6R-L (antibody, human IgG1, kappa)
heavy: B1 heavy with E235D, I266V, A269S, G273P, S300A, A329G, A332S, P333S
light: not shown
B18: IL6R-P778/IL6R-L (antibody, human IgG1, kappa)
heavy: B1 heavy with E235D, H270E, K324E
light: not shown
notes: also called IL6B-P778/IL6R-L
B19: IL6R-P784/IL6R-L (antibody, human IgG1, kappa)
heavy: B1 heavy with E235D, G239D, I266V, A269S, G273P, A329G, A332S, P333S
light: not shown
B20: IL6R-P773/IL6R-L (antibody, human IgG1, kappa)
heavy: B1 heavy with I266V, H270E, K324A
light: not shown
B21: IL6R-P772/IL6R-L (antibody, human IgG1, kappa)
heavy: B1 heavy with A269S, K324E
light: not shown
B22: IL6R-P768/IL6R-L (antibody, human IgG1, kappa)
heavy: B1 heavy with A329G, A332S, P333S
light: not shown
B23: IL6R-P770/IL6R-L (antibody, human IgG1, kappa)
heavy: B1 heavy with A269S, A329G, A332S, P333S
light: not shown
B24: IL6R-P786/IL6R-L (antibody, human IgG1, kappa)
heavy: B1 heavy with G239D, I266V, A269S, G273P, S300A, A329G, A332S, P333S
light: not shown
B25: IL6R-P785/IL6R-L (antibody, human IgG1, kappa)
heavy: B1 heavy with E235D, I266V, A269S, G273P, S300A, A329G, A332S, P333S
light: not shown
B26: IL6R-P787/IL6R-L (antibody, human IgG1, kappa)
heavy: B1 heavy with E235D, G239D, I266V, A269S, G273P, S300A, A329G, A332S, P333S
light: not shown

Target: T6, human complement C1q (human, UniProt P02745 23-245; P02746 28-253; P02747 29-245)
T6 construct: Bought (PROSPEC or Calbiochem); also called human C1q
T6 sequence (P02745 23-245 limits assumed, chain 1 of 3): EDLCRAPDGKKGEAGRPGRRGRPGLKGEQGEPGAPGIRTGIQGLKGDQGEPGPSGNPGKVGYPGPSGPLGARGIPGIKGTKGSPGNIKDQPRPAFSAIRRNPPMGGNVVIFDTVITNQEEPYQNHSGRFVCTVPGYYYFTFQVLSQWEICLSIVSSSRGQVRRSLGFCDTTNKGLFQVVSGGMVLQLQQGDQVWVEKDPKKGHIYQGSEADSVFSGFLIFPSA
T6 sequence (P02746 28-253 limits assumed, chain 2 of 3): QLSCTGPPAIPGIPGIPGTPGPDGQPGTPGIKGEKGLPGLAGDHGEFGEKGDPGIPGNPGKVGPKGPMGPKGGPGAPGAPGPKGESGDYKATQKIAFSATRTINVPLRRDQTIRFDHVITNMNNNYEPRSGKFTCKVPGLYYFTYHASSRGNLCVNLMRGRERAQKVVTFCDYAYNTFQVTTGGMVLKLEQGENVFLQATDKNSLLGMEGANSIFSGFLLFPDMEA
T6 sequence (P02747 29-245 limits assumed, chain 3 of 3): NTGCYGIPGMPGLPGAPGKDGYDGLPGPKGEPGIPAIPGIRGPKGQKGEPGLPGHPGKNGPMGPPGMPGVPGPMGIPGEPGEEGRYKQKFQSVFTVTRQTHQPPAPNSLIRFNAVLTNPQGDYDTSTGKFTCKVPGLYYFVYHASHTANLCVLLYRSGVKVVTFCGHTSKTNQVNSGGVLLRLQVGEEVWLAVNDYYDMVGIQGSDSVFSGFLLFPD
Assay: SPR, C1q bound per antibody captured on Protein L
Method in brief: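 Antibodies captured on Protein L immobilized on a CM4 chip were exposed to human C1q diluted in HBS-EP+ running buffer at 25° C. C1q binding was normalized as C1q bound divided by antibody captured. The surface was regenerated with 10 mM glycine-HCl, pH 1.5.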

Binder	Amount of C1q-binding when that for G1d is Defined as 100 [G1d=100]
B1	46.6
B2	15.2
B3	24
B4	12.9
B5	21.8
B6	12.4
B7	24
B8	14.3
B9	0.7
B10	13.3
B11	31.3
B12	21.8
B13	1.7
B14	0.8
B15	1.3
B16	12.9
B17	1.3
B18	23.9
B19	24.2
B20	1.7
B21	21.6
B22	14
B23	1.5

Target: T7, human FcγRIa extracellular domain with C-terminal His tag (human, UniProt P12314 16-292)
T7 construct: Whole entry named; also called FcgRIa
T7 sequence (P12314 16-292): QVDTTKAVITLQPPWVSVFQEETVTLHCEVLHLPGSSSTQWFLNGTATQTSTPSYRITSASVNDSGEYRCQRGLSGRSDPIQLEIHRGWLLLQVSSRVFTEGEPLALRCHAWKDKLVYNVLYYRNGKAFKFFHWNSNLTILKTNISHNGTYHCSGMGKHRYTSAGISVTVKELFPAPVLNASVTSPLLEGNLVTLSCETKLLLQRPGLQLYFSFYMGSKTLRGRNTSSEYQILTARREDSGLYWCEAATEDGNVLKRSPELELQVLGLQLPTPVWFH
Assay: SPR, antibody captured, FcgR analyte

Binder	Kd [nM]
B24	120
B25	23
B26	56

Target: T1, human FcγRIIb extracellular domain with …
Assay: SPR, antibody captured, FcgR analyte

Binder	Kd [µM]
B24	8.5
B25	7.9
B26	4.6

Target: T2, FcgRIIaR
Assay: SPR, amount bound per captured antibody

Binder	Relative FcgRIIaR-binding Activity [IL6R-G1d/IL6R-L=100]
B1	93.2
B2	98.8
B3	7.8
B4	11.5
B5	64.2
B6	97.5
B7	14.7
B8	75.8
B9	77.4
B10	20.5
B11	86.7
B12	88.1
B13	84.2
B14	96
B15	14.2
B16	101
B17	9.1
B18	105
B19	28.6
B20	87.3
B21	84.3
B22	80.9
B23	78.2

Target: T3, FcgRIIb
Assay: SPR, amount bound per captured antibody

Binder	Relative FcgRIIb-binding Activity [IL6R-G1d/IL6R-L=100]
B1	340
B2	200
B3	51.1
B4	62.4
B5	180
B6	198
B7	84
B8	195
B9	190
B10	97.9
B11	196
B12	286
B13	318
B14	201
B15	95.1
B16	200
B17	58.4
B18	198
B19	118
B20	192
B21	196
B22	305
B23	188

Target: T4, human FcγRIIa R type extracellular …
Assay: SPR, KD of IL6R-G1d/IL6R-L divided by KD of variant

Binder	Relative FcgRIIaR-binding Activity
B24	0.02
B25	0.01
B26	0.02

Target: T5, human FcγRIIa H type extracellular …
Assay: as above

Binder	Relative FcgRIIaH-binding Activity
B24	0.006
B25	0.007
B26	0.007

Target: T7, human FcγRIa extracellular domain with …
Assay: as above

Binder	Relative FcgRIa-binding Activity
B24	0.003
B25	0.014
B26	0.006

Target: T8, human FcγRIIIa V type extracellular domain with C-terminal His tag (human, UniProt P08637 17-208)
T8 construct: extracellular domain; also called FcgRIIIaV
T8 sequence (P08637 17-208 F176V): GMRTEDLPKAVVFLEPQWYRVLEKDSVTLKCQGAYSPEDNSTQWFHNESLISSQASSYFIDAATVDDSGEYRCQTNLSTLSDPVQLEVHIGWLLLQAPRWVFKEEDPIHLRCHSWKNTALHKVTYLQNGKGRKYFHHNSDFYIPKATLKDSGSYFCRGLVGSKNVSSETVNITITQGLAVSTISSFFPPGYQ
Assay: as above

Binder	Relative FcgRIIIaV-binding Activity
B24	0.01
B25	0.009
B26	0.01

Target: T1, human FcγRIIb extracellular domain with …
Assay: as above

Binder	Relative FcgRIIb-binding Activity
B24	0.2
B25	0.3
B26	0.5
